From the supplement of paper PMC12764529
± gives the half width of the 95% confidence interval.

Key:
[1] = folding stability dG unfold from trypsin proteolysis; higher = more stable
Summary of the method: (§1)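 Mini-proteins designed to be under 80 residues and free of cysteine were carried in a PA-tagged cDNA display construct and digested with trypsin and with chymotrypsin. Each protease was applied at 11 threefold-diluted concentrations, alongside a no-protease condition, before sequencing. K50 came from Bayesian fitting of the sequencing counts, and unfolding free energy was obtained by comparing it with a sequence-predicted unfolded-state K50 and a shared folded-state K50, for each protease separately or for both together. Designs were retained only if their AlphaFold2 dimer inter-PAE exceeded 15.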

[2] = folding stability dG unfold from chymotrypsin proteolysis; higher = more stable
Summary of the method: as §1

[3] = folding stability dG unfold (combined trypsin and chymotrypsin); higher = more stable
Summary of the method: as §1

| Sequence | folding stability dG unfold [1] | folding stability dG unfold [2] | folding stability dG unfold [3] |
| --- | --- | --- | --- |
| SAGGSAGGSAGGMPPATTVVEKPETSLTLEKTPTTVTIHDKATGKTSTVPAAEVDPALLSAGGSAGGSAGGS [r10_512_JUSTAS] | -1.56 ± 0.46 kJ/mol | 1.24 ± 0.314 kJ/mol | 0.578 ± 0.418 kJ/mol |
| SAGGSAGGSAGMKNKNYKVYTYKINIIDPGYENTTIIVEPNPAKPKAKPITIPIIIVEPASAGGSAGGSAGG [r11_257_TrMRF] | 2.39 ± 0.347 kJ/mol | 4.33 ± 0.753 kJ/mol | 3.34 ± 0.879 kJ/mol |
| SAGGSAGGSEEEKLKKLKEKLKPPKIKVKIEVKVEYDKETGKLKVEATVEINGKKYKLTIEFPSAGGSAGGS [r20_230_TrROS_Hall] | 13 ± 0.795 kJ/mol | 17.5 ± 0.544 kJ/mol | 14.6 ± 2.97 kJ/mol |
| SAGKPESFSIEAPPIAPPEFPLGGSYRTLPNGEVLVLITLPDGTVLVLPSLDELRELRESGLPIDISPSSAG [r5_42_TrMRF] | 4.01 ± 0.0711 kJ/mol | 4.91 ± 0.188 kJ/mol | 4.48 ± 0.188 kJ/mol |
| SAGGSAGGSAGALPFKVKVVEVEVDGDEVTVKVVAELPTGTATVELKLGGKLETLTISPVSAGGSAGGSAGG [r17_45_TrMRF] | 6.21 ± 0.795 kJ/mol | 10.4 ± 0.544 kJ/mol | 9.05 ± 1 kJ/mol |
| GSVTIELVVPKGVDIPLALLAGIASTGKGKVTARISNPLSGKEIEVTFPGGGLGEAGVTEGINVVRLTVYGS [r1_238_TrMRF] | 3.64 ± 0.418 kJ/mol | 5.38 ± 0.46 kJ/mol | 5.04 ± 0.795 kJ/mol |
| SAGGSADPEKVKLIEVEVEVHVEYDPEKGTYTVKAEFPDLTLSFEVPADSIHPDEKFKAPVLILVLSAGGSA [r15_190_TrMRF] | 9.58 ± 0.381 kJ/mol | 15.5 ± 0.92 kJ/mol | 13.8 ± 1 kJ/mol |
| SAGGSAEEIARKLAEELAEEGEEVEVEVVEVEVEKVDGKEKVIRIRVKVKLPNGEELELELEIKLDELSAGG [r13_215_TrROS_Hall] | 9.96 ± 0.669 kJ/mol | 9.1 ± 1.17 kJ/mol | 10.2 ± 1 kJ/mol |
| SAGMAKVKLKVEVYFPKTGKPVTMEIEVEGLTLEEIIEEVKKAIEAIGLKIDPDAPVKIVITDIEVYPGSAG [r5_230_TrMRF] | 15.7 ± 0.46 kJ/mol | 15.8 ± 0.163 kJ/mol | 15.8 ± 0.322 kJ/mol |
| SAGGSAGGSSPDWSVKKSTVTVTITFPEEKYFEPETKKEVAKRPVITIEIEIEVVETLPASLISAGGSAGGS [r12_600_JUSTAS] | 6.9 ± 0.28 kJ/mol | 6.04 ± 0.402 kJ/mol | 6.83 ± 0.795 kJ/mol |
| SLGPNEDAILEEEAIIDIDPEAFRKAFGFDVPEDTKVLIITRRRVPANGDIETDPEIYIYDPKTKKFYPISA [r9_349_TrMRF] | 8.59 ± 0.192 kJ/mol | 9.78 ± 0.28 kJ/mol | 9.57 ± 0.669 kJ/mol |
| SAGTIKELLEKLPGFSVEVDPDDGTVWVMFRMPDHYVMIEIPIDKEDGNIKGIRIHRHDPNGEPKPIPLSAG [r5_367_TrROS] | 6.03 ± 0.159 kJ/mol | 4.97 ± 0.92 kJ/mol | 6.04 ± 0.502 kJ/mol |
| SAGGSGKVIGFSFEVETPEEAEGLFKENRPDLDVKILEVKPEEGYVRLVAVDPDGKPHVFVVPIVGSAGGSA [r2_201_TrMRF] | 3.11 ± 0.23 kJ/mol | 5.61 ± 0.418 kJ/mol | 4.66 ± 0.381 kJ/mol |
| SAGGSAGGSAGGGSMLTVKVPETVPEYTSTDPATGKTYNVPPSVPVEVEGSPDSFSILLSAGGSAGGSAGGS [r10_46_JUSTAS] | 5.04 ± 0.192 kJ/mol | 3.52 ± 0.397 kJ/mol | 4.22 ± 0.393 kJ/mol |
| SAGGSAGGSADEPETTTTTTTTTTTKKPAPPAPPKTITLDVEVNGKTLRLTFTSKEALDALSAGGSAGGSAG [r3_426_TrROS_Hall] | 3.89 ± 0.0879 kJ/mol | 3.96 ± 0.418 kJ/mol | 4.31 ± 0.628 kJ/mol |
| SAGGSAGDKVVTVTATFTTTDPNGNEITIIAPITFLNGEGTAVIDAKAFNPTGELIAEATITVPIGSAGGSA [r15_967_TrMRF] | 7.05 ± 0.238 kJ/mol | 9.78 ± 0.117 kJ/mol | 8.68 ± 0.364 kJ/mol |
| SAGGSAGGSAKPPVTLTILVKNPETGEWVRLEVEFLPDGTVKITVTNPNGEKYTFTFKLPPSAGGSAGGSAG [r3_61_TrROS_Hall] | 15.4 ± 0.753 kJ/mol | 23.4 ± 0.669 kJ/mol | 23.4 ± 1.13 kJ/mol |
| SAGPKTLLLNIPPGEDVELLIGDKPYRIKVDPERLIGYAFDPETGEIFLIFHDPEKPIALITVFPSPPLSAG [r5_302_TrMRF] | 6.52 ± 0.176 kJ/mol | 10.3 ± 0.46 kJ/mol | 9.1 ± 0.502 kJ/mol |
| SMVVVKVTASSPEEAEALAKEAEEKLKEEIEKKIKELKKKGINPKELNLNIKIEIETLSYDPANPGKNTPSA [r9_961_JUSTAS] | 2.03 ± 0.163 kJ/mol | 4.18 ± 0.276 kJ/mol | 3.46 ± 0.544 kJ/mol |
| SGPALEILRAASEEEGVPVLAEVVPDADGNPVIPAVVWSPEDIEAGELPGEVKEAPITVDGKTYRVVLFASA [r9_489_TrMRF] | -0.936 ± 0.46 kJ/mol | -0.394 ± 0.753 kJ/mol | -0.24 ± 0.36 kJ/mol |
| SAGGMKITTKDGSTITVETEPGKVTITIKPPGDGSTTTLPFPAPSEEEGIEAAIKKIEEEGNVEEIELSAGG [r13_579_JUSTAS] | 0.268 ± 0.418 kJ/mol | 2.47 ± 0.418 kJ/mol | 2.05 ± 1.26 kJ/mol |
